Reference: patent US12630600B2 (MEDIMMUNE LIMITED, priority 2022, dated 2026)
Values joined by “and” are separate entries in the source; they are usually repeats but may differ in a detail not shown here. Equal entries are not always repeated. Where two headings read alike, the source gives them in different places. Blank lines part the entries; values can stand above or below the molecule they belong to. Starred links: 1 amine or outer side, 2 acyl side, 3 side chain; linkers in the order of their positions; H or OH if unused. Non-standard residues stand in square brackets, D forms with d. Residues, ends and D or L forms follow the SMILES beside them. Groups on a side chain read outwards from the residue. Primed or numbered codes have the meaning given here. No end group written: not given here. *: point of attachment. β‑dimethylArg = (S)-2-amino-5-guanidino-3,3-dimethylpentanoic acid, CC(C)(CCNC(=N)N)[C@H](N[*:1])C(=O)[*:2]; C20 diacid = O=C(O)CCCCCCCCCCCCCCCCCCC(=O)*; C18 diacid = O=C(O)CCCCCCCCCCCCCCCCC(=O)*; Dip = N[C@H](C(=O)O)C(c1ccccc1)c1ccccc1; γGlu = O=C(O)[C@H](CCC(=O)[*:2])N[*:1]; Palmitoyl = CCCCCCCCCCCCCCCC(=O)*; αMeF = C[C@](N)(Cc1ccccc1)C(=O)O; Myristoyl = CCCCCCCCCCCCCC(=O)*; (PEG)2 = polyethylene glycol 2; PEG2′ = polyethylene glycol 2; AEEA = NCCOCCOCC(=O)O; Aib = CC(C)(N)C(=O)O

Tests used:
[1] = target: T1, Semaglutide (synthetic construct)
T1 sequence (peptide, Aib at 2; X20=Lys[O2Oc-O2Oc-γE-C18diacid]; C-terminal acid): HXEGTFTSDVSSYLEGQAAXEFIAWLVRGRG

Male C57Bl/6 mice = test: Mouse acute food intake study; type: in vivo; details: s.c., food intake at 24 h vs vehicle
Procedure: Male C57Bl/6 mice obtained from Jackson Laboratories or Charles River at 8-9 weeks of age and were housed one per cage in BioDaq (Research Diets) cages. Mice were placed on Alpha Dri bedding, standard chow diet (Envigo, 2018) and given water pouches. Mice were allowed to acclimate for 1-2 weeks. Body weight was measured to ensure appropriate acclimation. After acclimation, mice were sham dosed a minimum of 2 times prior to initiation of food intake study. On study day, mice were placed in clean cage bottoms, weighed, and fasted for 6-8 hours. Mice were sorted into groups based on average 24-hour food intake data and body weight. 1-2 hours prior to lights out, mice were dosed subcutaneously with one vehicle or test peptide dissolved in an appropriate vehicle at 5 mL/kg. Mice were left undisturbed and allowed access to food and water for 48 hours. Automated food intake was monitored in the BioDaq system was monitored during this time. Discrete food intake data was exported into MS Excel from which cumulative food intake data was generated and analyzed.

GLP-1R knockout mice = test: Glucose change in GLP-1R knockout mice; type: in vivo, mouse; details: GLP-1R KO mice, s.c., no somatostatin pretreatment
Procedure: They acclimated for a minimum of ˜1-2 weeks, and mice were sorted into groups (n=4-8/group) based on body weight. On day of study, mice were fasted briefly for 2 hrs prior to study start. In some studies, mice were pre-treated with octreotide (BaChem, 10 mg/kg) at 30 minutes prior to peptide injection. Glucose was measured via glucometer at various timepoints including −30 min (prior to octreotide when used in studies), 0 min (before peptide dose), 30, 60, 120, 180, 240, and 360 minutes. Since these studies are acute in nature, mice were re-used for multiple studies (no more than 3) and always allowed at least a minimum wash-out period of 1 week.

wildtype (WT) mice = test: Glucose change in wildtype mice; type: in vivo, mouse; details: s.c., no somatostatin pretreatment
Outline: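 Chow-fed wildtype mice, 8-14 weeks old, n=4-8/group, fasted 2 h before peptide injection, in some studies after octreotide 10 mg/kg 30 min before dosing. Blood glucose by glucometer at −30, 0, 30, 60, 120, 180, 240 and 360 min; mice reused up to 3 times with ≥1-week washout.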

[2] = target: T1, Semaglutide (synthetic construct); remark: listed apart in the source
[3] = target: GLP-1R of the mouse (present in wildtype mice, absent in GLP-1R knockout mice) (mouse, UniProt O35659); test: cell-based or functional assay
human GLP-1 receptor [4] = target: T2, human GLP-1 receptor (human, UniProt P43220); test: cell-based or functional assay
human glucagon receptor [5] = target: T3, human glucagon receptor (human, UniProt P47871); test: cell-based or functional assay
human GLP-1 receptor [6] = target: T2, human GLP-1 receptor; test: cell-based or functional assay; remark: listed apart in the source
human glucagon receptor [7] = target: T3, human glucagon receptor; test: cell-based or functional assay; remark: listed apart in the source
human GLP-1 receptor [8] = target: T2, human GLP-1 receptor; test: cell-based or functional assay; remark: listed apart in the source
human glucagon receptor [9] = target: T3, human glucagon receptor; test: cell-based or functional assay; remark: listed apart in the source
human GLP-1 receptor [10] = target: human GLP-1 receptor (human, UniProt P43220); test: cell-based or functional assay; remark: listed apart in the source
human glucagon receptor [11] = target: human glucagon receptor (human, UniProt P47871); test: cell-based or functional assay; remark: listed apart in the source

% intact peptide over time, 24 hr (% intact peptide at 24 hr) [1]: 48
Molecule: recombinant Neprilysin (from UniProt P08473) (enzyme)

Molecule: H-Aib-Q-G-T-F-T-S-D-V-S-K-αMePhe-L-D-T-K-R-A-R-D-F-V-Q-W-L-L-E-Aib-G-acid [Peptide 195]
24 hr % Vehicle Food Intake (Male C57Bl/6 mice; dose 1 nmol/kg): 102.1%
24 hr % Vehicle Food Intake (Male C57Bl/6 mice; dose 3 nmol/kg): 84.0%
24 hr % Vehicle Food Intake (Male C57Bl/6 mice; dose 10 nmol/kg): 58.2% and 49.9%
GLP-1R KO % glucose change −60 min (GLP-1R knockout mice; 10 nmol/kg): 35.3%
GLP-1R KO % glucose change −60 min (GLP-1R knockout mice; 30 nmol/kg): 48.0%
WT % glucose change 60 min (wildtype (WT) mice; 10 nmol/kg): 1.4%
WT % glucose change 60 min (wildtype (WT) mice; 30 nmol/kg): −17.0%

Molecule: CC[C@H](C)[C@H](NC(=O)[C@H](Cc1c[nH]c2ccccc12)NC(=O)[C@H](CCC(N)=O)NC(=O)[C@@H](NC(=O)[C@H](Cc1ccccc1)NC(=O)[C@H](CC(=O)O)NC(=O)[C@H](CCCCNC(=O)COCCOCCNC(=O)COCCOCCNC(=O)CC[C@H](NC(=O)CC[C@H](NC(=O)CCCCCCCCCCCCCCCCCCC(=O)O)C(=O)O)C(=O)O)NC(=O)[C@H](C)NC(=O)[C@H](C)NC(=O)[C@H](CCCNC(=N)N)NC(=O)[C@H](CO)NC(=O)[C@H](CC(=O)O)NC(=O)[C@H](CC(C)C)NC(=O)[C@H](Cc1ccc(O)cc1)NC(=O)[C@H](CCCCN)NC(=O)[C@H](CO)NC(=O)[C@@H](NC(=O)[C@H](CC(=O)O)NC(=O)[C@H](CO)NC(=O)[C@@H](NC(=O)[C@](C)(Cc1ccccc1)NC(=O)[C@H](CO)NC(=O)CNC(=O)[C@H](Cc1c[nH]cn1)NC(=O)C(C)(C)NC(=O)[C@@H](N)Cc1c[nH]cn1)[C@@H](C)O)C(C)C)C(C)C)C(=O)N[C@@H](C)C(=O)N[C@@H](CC(N)=O)C(=O)N[C@H](C(N)=O)[C@@H](C)O [Peptide 289] (H-H[Aib]HGS[αMeF]TSDVSKYLDSRAAK([AEEA-AEEA-γGlu-γGlu-C20 diacid])DFVQWIANT-NH2; N-terminus assumed)
GLP-1R KO % glucose change 120 min (GLP-1R knockout mice; 10 nmol/kg): 8.9%
GLP-1R KO % glucose change 120 min (GLP-1R knockout mice; 30 nmol/kg): 7.7%
WT % glucose change 120 min (wildtype (WT) mice; 10 nmol/kg): −8.5%

% intact peptide over time (min), 30 (% intact peptide at 30 min) [2]: 14
Molecule: porcine pancreatic pepsin (from UniProt P00791) (enzyme)

WT % glucose change 120 min [3]: -16.1 % glucose change at 120 min, WT mice, 30 nmol/kg
Molecule: H[Aib]HGS[αMeF]TSDVSK[αMeF]LDSRAAKD[αMeF]VQWIANT-NH2 (not fully specified (residue 20); also: X13: αMePhe or Y (table)) [Peptide 289]

WT % glucose change 120 min [3]: -26.4 % glucose change at 120 min, WT mice, 10 nmol/kg
Molecule: HSQGS[αMeF]TSDVSK[Dip]LDSK([PEG2′-PEG2′-γGlu-γGlu-Myristoyl])AAQD[αMeF]VE[Aib]IINT-NH2 [Peptide 63]

hGLP-1R EC50 (pM) (human GLP-1 receptor [4]): 312 pM
hGluc-R EC50 (pM) (human glucagon receptor [5]): 6920 pM
B1: Peptide 392 of Table 9 (peptide)
peptide: H[Aib]HGS[αMeF]TSDK([AEEA-AEEA-γGlu-C18 diacid])SK[αMeF]LDSRAAQD[αMeF]VQ[Aib]IANT-NH2
modifications: N-terminus assumed
SMILES: CC[C@H](C)[C@H](NC(=O)C(C)(C)NC(=O)[C@H](CCC(N)=O)NC(=O)[C@@H](NC(=O)[C@](C)(Cc1ccccc1)NC(=O)[C@H](CC(=O)O)NC(=O)[C@H](CCC(N)=O)NC(=O)[C@H](C)NC(=O)[C@H](C)NC(=O)[C@H](CCCNC(=N)N)NC(=O)[C@H](CO)NC(=O)[C@H](CC(=O)O)NC(=O)[C@H](CC(C)C)NC(=O)[C@](C)(Cc1ccccc1)NC(=O)[C@H](CCCCN)NC(=O)[C@H](CO)NC(=O)[C@H](CCCCNC(=O)COCCOCCNC(=O)COCCOCCNC(=O)CC[C@H](NC(=O)CCCCCCCCCCCCCCCCC(=O)O)C(=O)O)NC(=O)[C@H](CC(=O)O)NC(=O)[C@H](CO)NC(=O)[C@@H](NC(=O)[C@](C)(Cc1ccccc1)NC(=O)[C@H](CO)NC(=O)CNC(=O)[C@H](Cc1c[nH]cn1)NC(=O)C(C)(C)NC(=O)[C@@H](N)Cc1c[nH]cn1)[C@@H](C)O)C(C)C)C(=O)N[C@@H](C)C(=O)N[C@@H](CC(N)=O)C(=O)N[C@H](C(N)=O)[C@@H](C)O

WT % glucose change 120 min [3]: -45 % glucose change at 120 min, WT mice, 30 nmol/kg
Molecule: HSQGS[αMeF]TSDVSKK([(PEG)2-(PEG)2-γGlu-γGlu-Palmitoyl])LDS[β‑dimethylArg]AAQD[αMeF]VE[Aib]LANT-NH2 [Peptide 399]

hGLP-1R EC50 (pM) (human GLP-1 receptor [6]): 71.8 pM
hGluc-R EC50 (pM) (human glucagon receptor [7]): 85.7 pM
Molecule: H[Aib]HGS[αMeF]TSDVSK[αMeF]LDSRAAQD[αMeF]VK([AEEA-AEEA-γGlu-C18 diacid])SIANT-NH2 (not fully specified) [Peptide 379]

WT % glucose change 120 min [3]: -46.2 % glucose change at 120 min, WT mice, 30 nmol/kg
Molecule: H[Aib]QGS[αMeF]TSDVSKILDSK([(PEG)2-(PEG)2-γGlu-γGlu-Myristoyl])AAQD[αMeF]VQ[Aib]IINT-NH2 [Peptide 126]

hGLP-1R EC50 (pM) (human GLP-1 receptor [6]): 917 pM
hGluc-R EC50 (pM) (human glucagon receptor [7]): 550 pM
B2: Peptide 357 (peptide)
peptide: HXHGSXTSDVSKXLDSQAAQDFVXWIANT
modifications: Aib at 2; αMePhe at 6, 13; Lys 24 acylated K(γE-γE-(PEG)2-γE-γE-C20diacid)24; C-terminal amide

hGLP-1R EC50 (pM) (human GLP-1 receptor [4]): 0.458 pM
Molecule: H[Aib]HGS[αMeF]TSDK([AEEA-AEEA-γGlu-C18 diacid])SK[αMeF]LDSRAAQD[αMeF]VQ[Aib]IANT (not fully specified (C-terminus)) [Peptide 393 of Table 9]

hGLP-1R EC50 (pM) (human GLP-1 receptor [8]): 458 pM
hGluc-R EC50 (pM) (human glucagon receptor [9]): 7310 pM
Molecule: H[Aib]HGS[αMeF]TSDVSKKLDSRAAQD[αMeF]VQ[Aib]IANT-NH2 (not fully specified (residue 13)) [Peptide 406 of Table 10]

hGLP-1R EC50 (pM) (human GLP-1 receptor [6]): 56 pM
hGluc-R EC50 (pM) (human glucagon receptor [7]): 329 pM
B3: Peptide 382 (peptide)
peptide: H[Aib]HGS[αMeF]TSDVSK[αMeF]LDSR[Aib]AQDFVK([AEEA-AEEA-γGlu-γGlu-C18 diacid])SIANTGG-NH2
modifications: N-terminus assumed
SMILES: CC[C@H](C)[C@H](NC(=O)[C@H](CO)NC(=O)[C@H](CCCCNC(=O)COCCOCCNC(=O)COCCOCCNC(=O)CC[C@H](NC(=O)CC[C@H](NC(=O)CCCCCCCCCCCCCCCCC(=O)O)C(=O)O)C(=O)O)NC(=O)[C@@H](NC(=O)[C@H](Cc1ccccc1)NC(=O)[C@H](CC(=O)O)NC(=O)[C@H](CCC(N)=O)NC(=O)[C@H](C)NC(=O)C(C)(C)NC(=O)[C@H](CCCNC(=N)N)NC(=O)[C@H](CO)NC(=O)[C@H](CC(=O)O)NC(=O)[C@H](CC(C)C)NC(=O)[C@](C)(Cc1ccccc1)NC(=O)[C@H](CCCCN)NC(=O)[C@H](CO)NC(=O)[C@@H](NC(=O)[C@H](CC(=O)O)NC(=O)[C@H](CO)NC(=O)[C@@H](NC(=O)[C@](C)(Cc1ccccc1)NC(=O)[C@H](CO)NC(=O)CNC(=O)[C@H](Cc1c[nH]cn1)NC(=O)C(C)(C)NC(=O)[C@@H](N)Cc1c[nH]cn1)[C@@H](C)O)C(C)C)C(C)C)C(=O)N[C@@H](C)C(=O)N[C@@H](CC(N)=O)C(=O)N[C@H](C(=O)NCC(=O)NCC(N)=O)[C@@H](C)O

hGLP-1R EC50 (pM) (human GLP-1 receptor [6]): 797 pM
hGluc-R EC50 (pM) (human glucagon receptor [7]): 1240 pM
Molecule: H[Aib]HGS[αMeF]TSDVSK[αMeF]LDSQAAQD[αMeF]VK([AEEA-AEEA-γGlu-γGlu-C20 diacid])[Aib]IANT-NH2 [Peptide 384]

hGLP-1R EC50 (pM), cAMP production (HTRF) (human GLP-1 receptor [10]): 44.9 pM
hGluc-R EC50 (pM), cAMP production (HTRF) (human glucagon receptor [11]): 101 pM
Molecule: H[Aib]QGTFTSDVSK[αMeF]LDTK([AEEA-AEEA-γGlu-C18 diacid])RAQDFVRWLLEAG-OH [Peptide 186]
